Assay results reported in article PMC5453625.

How the values were obtained:
[1] = target: swine nectin-1 ectodomain (amino acids 30-335) (swine) (UniProt Q9GL76); experiment: SPR; BIAcore 3000, CM5 chip; […]) immobilised; […]; 25 C; HBS-EP (10 mM HEPES pH 7.4, 150 mM NaCl, 3 mM EDTA, 0.005% Tween 20); […]
[2] = target: human nectin-1 ectodomain (amino acids 30-335) (human) (UniProt Q15223); experiment: as above
Chain of UniProt Q15223 (Q15223 30-335): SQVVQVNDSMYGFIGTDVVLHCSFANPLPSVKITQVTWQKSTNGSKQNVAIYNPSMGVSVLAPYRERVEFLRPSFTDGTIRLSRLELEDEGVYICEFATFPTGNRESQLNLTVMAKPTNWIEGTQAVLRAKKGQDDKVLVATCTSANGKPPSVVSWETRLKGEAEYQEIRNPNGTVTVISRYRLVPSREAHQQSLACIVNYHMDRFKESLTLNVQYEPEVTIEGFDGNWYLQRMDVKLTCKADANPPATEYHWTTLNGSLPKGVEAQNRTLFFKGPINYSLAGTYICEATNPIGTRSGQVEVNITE

Chain of UniProt Q9GL76 (Q9GL76 30-335): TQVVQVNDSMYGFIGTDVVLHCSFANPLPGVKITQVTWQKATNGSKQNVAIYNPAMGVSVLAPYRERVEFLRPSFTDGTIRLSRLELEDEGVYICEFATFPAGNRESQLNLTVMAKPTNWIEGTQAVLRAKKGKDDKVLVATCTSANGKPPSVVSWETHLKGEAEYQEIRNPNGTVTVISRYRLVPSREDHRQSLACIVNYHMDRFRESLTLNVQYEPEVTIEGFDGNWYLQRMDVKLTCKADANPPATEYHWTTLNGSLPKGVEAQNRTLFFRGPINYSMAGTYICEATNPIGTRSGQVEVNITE

## PRV gD284 (pseudorabies virus glycoprotein D, residues 1-284, lacking the membrane-proximal loop) (domain or fragment)
[1]
  Kd: 18.4 nM
  koff: 0.0211 s⁻¹
  kon: 1.15e+06 M⁻¹ s⁻¹
[2]
  Kd: 16.1 nM
  koff: 0.0117 s⁻¹
  kon: 725000 M⁻¹ s⁻¹
